# B1: 4H8-E3: Mouse IgM monoclonal antibody against the human iRhom2 juxtamembrane domain adjacent to TMD1; HC VD SEQ ID NO 33, LC VD SEQ ID NO 40 (antibody, V domains shown)
# VH: EVQLQQSGPELVKPGASVKISCKASGYTFTDYYMNWVKQSHGKSLEWIGDINPNNGGTSYNQKFKGKATLTVDKSSNTAYMEFRSLTSEDSAVYYCARRGYYGVDYWGQGTTLTVSS
# VL: NIVMTQSPKSMSMSVGERVTLNCKASENVGTYVSWYQQKPEQSPKLLIFGASNRYTGVPDRFIGSGFATDFTLTISSVQAEDLADYHCGQSYSYPYTFGGGTKLEIK
# modifications: IgM constant regions; antibody sequence
# Test system: LPS-induced release of endogenous TNFα from human THP-1 macrophage cells
# Experiment: ELISA-based TNFα release assay, IC50 determination (Example 12)
# Assay type: cell-based
# Settings: titration 80.00 to 0.08 μg/ml final; LPS 50 ng/ml, 3 hours
# Description: Expanding the functional analyses, ELISA-based TNFα release assays were performed to determine the half maximal inhibitory concentration (IC50) for the purified antibody 4H8-E3 of the invention on LPS-induced release of endogenous TNFα from human THP-1 macrophage cells.
# In brief, on day 1, Nunc black MaxiSorp® 96-well plates (Thermo Fisher Scientific, USA) were coated overnight with 100 μl per well of mouse anti-human TNFα capture antibody (provided as part of the DuoSet ELISA kit) at 4 μg/ml TBS at 4° C. On day 2, the capture antibody solution was removed and MaxiSorp® plates were blocked with 300 μl per well of TBS, 1% BSA at room temperature for 3 hours. […] Using an infinite M1000 PRO (Tecan Group, Switzerland) microplate reader, the fluorescence of each well was collected at an excitation wavelength of 435 nm and an emission wavelength of 555 nm.
molecule,measurement,value
B1,inhibition of TNFα release from THP-1 cells on titration,concentration-dependent inhibition

# From patent US20220204610A1, “PROTEIN BINDERS FOR IRHOM2” (NEW YORK SOCIETY FOR THE RELIEF OF THE RUPTURED AND …, priority 2019, published 2022)
